Biological target: T1, CD3 epsilon homodimer protein (UniProt P07766 23-126)
T1 construct: also called CD3 (CD3 epsilon)
Experiment: SPR, CD3 epsilon homodimer on chip, one-arm antibody as analyte;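 further: surface plasmon resonance at 25 °C with CD3 epsilon homodimer amine-coupled to a CM4 sensor chip, antibody injected as analyte, HBS-EP+ as running buffer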

T1 sequence (P07766 23-126): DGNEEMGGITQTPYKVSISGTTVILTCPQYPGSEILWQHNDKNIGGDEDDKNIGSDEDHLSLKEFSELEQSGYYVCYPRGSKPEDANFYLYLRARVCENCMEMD

Binder	KD ratio (KD of CE115HA000/KD of altered form)
CE115HA000 Y59S (antibody, human IgG1, kappa, L234A L235A, N297A, name in Kabat numbering, one-arm antibody) heavy: QVQLVESGGGVVQPGRSLRLSCAASGFTFSNAWMHWVRQAPGKGLEWVAQIKAKSNNYATYSAESVKGRFTISRDDSKNSLYLQMNSLKTEDTAVYYCRYVHYGAYYGVDAWGQGTTVTVSSASTKGPSVFPLAPSSKSTSGGTAALGCLVKDYFPEPVTVSWNSGALTSGVHTFPAVLQSSGLYSLSSVVTVPSSSLGTQTYICNVNHKPSNTKVDKKVEPKSCDKTHTCPPCPAPEAAGGPSVFLFPPKPKDTLMISRTPEVTCVVVDVSHEDPEVKFNWYVDGVEVHNAKTKPREEQYASTYRVVSVLTVLHQDWLNGKEYKCKVSNKALPAPIEKTISKAKGQPREPQVYTLPPSRCELTKNQVSLSCAVKGFYPSDIAVEWESNGQPENNYKTTPPVLDSDGSFFLVSKLTVDKSRWQQGNVFSCSVMHEALHNHYTQKSLSLSPDYKDDDDK EPKSSDKTHTCPPCPAPELLGGPSVFLFPPKPKDTLMISRTPEVTCVVVDVSHEDPEVKFNWYVDGVEVHNAKTKPREEQYNSTYRVVSVLTVLHQDWLNGKEYKCKVSNKALPAPIEKTISKAKGQPREPQVCTLPPSRDELTKNQVSLWCLVKGFYPSDIAVEWESNGQPENNYKTTPPVLDSDGSFFLYSKLTVDKSRWQQGNVFSCSVMHEALHNRYTQKSLSLSP light: DIVMTQSPLSLPVTPGEPASISCRSSQSLVHSNRNTYLHWYQQKPGQAPRLLIYKVSNRFSGVPDRFSGSGSGTDFTLKISRVEAEDVGVYYCGQGTQVPYTFGQGTKLEIKRTVAAPSVFIFPPSDEQLKSGTASVVCLLNNFYPREAKVQWKVDNALQSGNSQESVTEQDSKDSTYSLSSTLTLSKADYEKHKVYACEVTHQGLSSPVTKSFNRGEC	0.79
CE115HA000 Y97A (antibody, human IgG1, kappa, L234A L235A, N297A, name in Kabat numbering, one-arm antibody) heavy: QVQLVESGGGVVQPGRSLRLSCAASGFTFSNAWMHWVRQAPGKGLEWVAQIKAKSNNYATYYAESVKGRFTISRDDSKNSLYLQMNSLKTEDTAVYYCRYVHAGAYYGVDAWGQGTTVTVSSASTKGPSVFPLAPSSKSTSGGTAALGCLVKDYFPEPVTVSWNSGALTSGVHTFPAVLQSSGLYSLSSVVTVPSSSLGTQTYICNVNHKPSNTKVDKKVEPKSCDKTHTCPPCPAPEAAGGPSVFLFPPKPKDTLMISRTPEVTCVVVDVSHEDPEVKFNWYVDGVEVHNAKTKPREEQYASTYRVVSVLTVLHQDWLNGKEYKCKVSNKALPAPIEKTISKAKGQPREPQVYTLPPSRCELTKNQVSLSCAVKGFYPSDIAVEWESNGQPENNYKTTPPVLDSDGSFFLVSKLTVDKSRWQQGNVFSCSVMHEALHNHYTQKSLSLSPDYKDDDDK EPKSSDKTHTCPPCPAPELLGGPSVFLFPPKPKDTLMISRTPEVTCVVVDVSHEDPEVKFNWYVDGVEVHNAKTKPREEQYNSTYRVVSVLTVLHQDWLNGKEYKCKVSNKALPAPIEKTISKAKGQPREPQVCTLPPSRDELTKNQVSLWCLVKGFYPSDIAVEWESNGQPENNYKTTPPVLDSDGSFFLYSKLTVDKSRWQQGNVFSCSVMHEALHNRYTQKSLSLSP light: DIVMTQSPLSLPVTPGEPASISCRSSQSLVHSNRNTYLHWYQQKPGQAPRLLIYKVSNRFSGVPDRFSGSGSGTDFTLKISRVEAEDVGVYYCGQGTQVPYTFGQGTKLEIKRTVAAPSVFIFPPSDEQLKSGTASVVCLLNNFYPREAKVQWKVDNALQSGNSQESVTEQDSKDSTYSLSSTLTLSKADYEKHKVYACEVTHQGLSSPVTKSFNRGEC	41300
CE115HA000 Y97D (antibody, human IgG1, kappa, L234A L235A, N297A, name in Kabat numbering, one-arm antibody) heavy: QVQLVESGGGVVQPGRSLRLSCAASGFTFSNAWMHWVRQAPGKGLEWVAQIKAKSNNYATYYAESVKGRFTISRDDSKNSLYLQMNSLKTEDTAVYYCRYVHDGAYYGVDAWGQGTTVTVSSASTKGPSVFPLAPSSKSTSGGTAALGCLVKDYFPEPVTVSWNSGALTSGVHTFPAVLQSSGLYSLSSVVTVPSSSLGTQTYICNVNHKPSNTKVDKKVEPKSCDKTHTCPPCPAPEAAGGPSVFLFPPKPKDTLMISRTPEVTCVVVDVSHEDPEVKFNWYVDGVEVHNAKTKPREEQYASTYRVVSVLTVLHQDWLNGKEYKCKVSNKALPAPIEKTISKAKGQPREPQVYTLPPSRCELTKNQVSLSCAVKGFYPSDIAVEWESNGQPENNYKTTPPVLDSDGSFFLVSKLTVDKSRWQQGNVFSCSVMHEALHNHYTQKSLSLSPDYKDDDDK EPKSSDKTHTCPPCPAPELLGGPSVFLFPPKPKDTLMISRTPEVTCVVVDVSHEDPEVKFNWYVDGVEVHNAKTKPREEQYNSTYRVVSVLTVLHQDWLNGKEYKCKVSNKALPAPIEKTISKAKGQPREPQVCTLPPSRDELTKNQVSLWCLVKGFYPSDIAVEWESNGQPENNYKTTPPVLDSDGSFFLYSKLTVDKSRWQQGNVFSCSVMHEALHNRYTQKSLSLSP light: DIVMTQSPLSLPVTPGEPASISCRSSQSLVHSNRNTYLHWYQQKPGQAPRLLIYKVSNRFSGVPDRFSGSGSGTDFTLKISRVEAEDVGVYYCGQGTQVPYTFGQGTKLEIKRTVAAPSVFIFPPSDEQLKSGTASVVCLLNNFYPREAKVQWKVDNALQSGNSQESVTEQDSKDSTYSLSSTLTLSKADYEKHKVYACEVTHQGLSSPVTKSFNRGEC	65.7
CE115HA000 Y97G (antibody, human IgG1, kappa, L234A L235A, N297A, name in Kabat numbering, one-arm antibody) heavy: QVQLVESGGGVVQPGRSLRLSCAASGFTFSNAWMHWVRQAPGKGLEWVAQIKAKSNNYATYYAESVKGRFTISRDDSKNSLYLQMNSLKTEDTAVYYCRYVHGGAYYGVDAWGQGTTVTVSSASTKGPSVFPLAPSSKSTSGGTAALGCLVKDYFPEPVTVSWNSGALTSGVHTFPAVLQSSGLYSLSSVVTVPSSSLGTQTYICNVNHKPSNTKVDKKVEPKSCDKTHTCPPCPAPEAAGGPSVFLFPPKPKDTLMISRTPEVTCVVVDVSHEDPEVKFNWYVDGVEVHNAKTKPREEQYASTYRVVSVLTVLHQDWLNGKEYKCKVSNKALPAPIEKTISKAKGQPREPQVYTLPPSRCELTKNQVSLSCAVKGFYPSDIAVEWESNGQPENNYKTTPPVLDSDGSFFLVSKLTVDKSRWQQGNVFSCSVMHEALHNHYTQKSLSLSPDYKDDDDK EPKSSDKTHTCPPCPAPELLGGPSVFLFPPKPKDTLMISRTPEVTCVVVDVSHEDPEVKFNWYVDGVEVHNAKTKPREEQYNSTYRVVSVLTVLHQDWLNGKEYKCKVSNKALPAPIEKTISKAKGQPREPQVCTLPPSRDELTKNQVSLWCLVKGFYPSDIAVEWESNGQPENNYKTTPPVLDSDGSFFLYSKLTVDKSRWQQGNVFSCSVMHEALHNRYTQKSLSLSP light: DIVMTQSPLSLPVTPGEPASISCRSSQSLVHSNRNTYLHWYQQKPGQAPRLLIYKVSNRFSGVPDRFSGSGSGTDFTLKISRVEAEDVGVYYCGQGTQVPYTFGQGTKLEIKRTVAAPSVFIFPPSDEQLKSGTASVVCLLNNFYPREAKVQWKVDNALQSGNSQESVTEQDSKDSTYSLSSTLTLSKADYEKHKVYACEVTHQGLSSPVTKSFNRGEC	47200
